Changes are numbered by the printed parent chain.
T1: human TIGIT expressed on cells (human, UniProt Q495A1 22-244)
T1 sequence (looked up): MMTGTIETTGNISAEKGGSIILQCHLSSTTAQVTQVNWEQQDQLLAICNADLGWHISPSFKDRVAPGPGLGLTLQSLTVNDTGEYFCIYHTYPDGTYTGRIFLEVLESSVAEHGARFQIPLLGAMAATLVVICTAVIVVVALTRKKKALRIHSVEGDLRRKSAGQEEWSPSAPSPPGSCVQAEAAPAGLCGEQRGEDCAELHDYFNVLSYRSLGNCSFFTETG

T2: Human TIGIT-Fc (human, UniProt Q495A1 22-141)
T2 construct: bought (Creative Biomart); also called TIGIT-Fc antigen; TIGIT-Fc fusion antigen; not shown: Fc part
T2 sequence (looked up): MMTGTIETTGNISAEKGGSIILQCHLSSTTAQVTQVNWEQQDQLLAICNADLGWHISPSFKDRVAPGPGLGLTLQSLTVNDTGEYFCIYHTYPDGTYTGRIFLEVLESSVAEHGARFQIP

T3: mouse TIGIT expressed on cells (mouse, UniProt P86176 29-249)
T3 construct: whole, on cells; on Jurkat cells engineered to express mouse TIGIT; also called mTIGIT; Jurkat-mTIGIT
T3 sequence (looked up): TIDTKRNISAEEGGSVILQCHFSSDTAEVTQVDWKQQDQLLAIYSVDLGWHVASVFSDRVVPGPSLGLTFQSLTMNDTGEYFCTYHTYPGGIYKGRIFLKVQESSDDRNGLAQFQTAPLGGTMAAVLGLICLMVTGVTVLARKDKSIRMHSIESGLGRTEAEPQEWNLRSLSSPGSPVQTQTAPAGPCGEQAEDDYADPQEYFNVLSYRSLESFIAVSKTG

T4: Human TIGIT-His (human, UniProt Q495A1 22-141, biotinylated in the ForteBio Fab assay)
T4 construct: bought (Creative Biomart); also called Biotinylated Human TIGIT HIS; TIGIT-His monomer; not shown: His tag
T4 sequence (looked up): T2 sequence (looked up)

T5: Mouse TIGIT-Fc (mouse, UniProt P86176 29-148, limits assumed)
T5 construct: not shown: Fc part
T5 sequence (looked up): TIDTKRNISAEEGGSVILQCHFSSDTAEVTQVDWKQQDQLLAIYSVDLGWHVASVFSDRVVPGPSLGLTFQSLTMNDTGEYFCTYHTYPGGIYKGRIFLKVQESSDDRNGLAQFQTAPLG

B1: anti-TIGIT antibody clone 26518 (IgG) (antibody, V domains shown)
VH: EVQLVESGGGLVQPGGSLRLSCAASGFTFSSYGMSWVRQAPGKGLEWVANIKQDGSEKYYVDSVKGRFTISRDNAKNSLYLQMNSLRAEDTAVYYCARVSYYYDSSKLRWAEYFQHWGQGTLVTVSS
VL: EIVLTQSPATLSLSPGERATLSCRASQSVSSYLAWYQQKPGQAPRLLIYDASKRATGIPARFSGSGSGTDFTLTISSLEPEDFAVYYCQQVHNFPLTFGGGTKVEIK
notes: parent clone
B2: anti-TIGIT antibody clone 26521 (IgG) (antibody, V domains shown)
VH: QVQLVQSGAEVKKPGSSVKVSCKASGGTFSSYAISWVRQAPGQGLEWMGGIIPIFGTANYAQKFQGRVTITADESTSTAYMELSSLRSEDTAVYYCARLHLGSSAYYGMDVWGQGTTVTVSS
VL: DIQMTQSPSSLSASVGDRVTITCRASQSISSYLNWYQQKPGKAPKLLIYAASSLQSGVPSRFSGSGSGTDFTLTISSLQPEDFATYYCQQRYVFPPTFGGGTKVEIK
notes: parent clone
B3: Fab of anti-TIGIT clone 31288 (Fab, V domains shown)
VH: QLQLQESGPGLVKPSETLSLTCTVSGGSISSGSYYLAWIRQPPGKGLEWIGSIFRSGSTYYNPSLESRVTISVDTSKNQFSLKLSSVTAADTAVYYCAIEGANFKDFGYVAFDIWGQGTTVTVSS
VL: EIVMTQSPATLSVSPGERATLSCRASQSVSSNLAWYQQKPGQAPRLLIYGASTRATGIPARFSGSGSGTEFTLTISSLQSEDFAVYYCQQSPPWPRTFGGGTKVEIK
notes: Fab
B4: Fab of anti-TIGIT clone 29494 (Fab, V domains shown)
VH: B3 VH with L2V, T120M
VL: B3 VL
B5: Fab of anti-TIGIT clone 29499 (Fab, V domains shown)
VH: B3 VH with G32S, S33R, L36W, F54G, R55T, E66K, A90T, K105R, T120M
VL: B3 VL
B6: Fab of anti-TIGIT clone 32919 (Fab, V domains shown)
VH: B3 VH
VL: B1 VL with K53N, V91E, H92N, N93P, F94R, L96R
notes: Fab
B7: Fab of anti-TIGIT clone 32931 (Fab, V domains shown)
VH: B3 VH
VL: B3 VL with Q27K, G50F, S91T, P92S
notes: Fab
B8: anti-TIGIT antibody clone 32919 (IgG) (antibody, V domains shown)
VH: B3 VH
VL: B1 VL with K53N, V91E, H92N, N93P, F94R, L96R
notes: human IgG; light chain optimised from 31288
B9: anti-TIGIT antibody clone 29478 (IgG) (antibody, V domains shown)
VH: EVQLVESGGGVVQPGRSLRLSCAASGFTFESYGMVWVRQAPGKGLEWVASILYDGSNRYYADSVKGRFTVSRDNSKNTLYLQMNSLRAEDTAVYYCARVSYYYDSVELRWAEYFQHWGQGTLVTVSS
VL: B1 VL
B10: anti-TIGIT antibody clone 32931 (IgG) (antibody, V domains shown)
VH: B3 VH
VL: B3 VL with Q27K, G50F, S91T, P92S
notes: as for B8
B11: anti-TIGIT antibody clone 26486 (IgG) (antibody, V domains shown)
VH: QVQLQESGPGLVKPSETLSLTCAVSGYSISSGYYWAWIRQPPGKGLEWIGSIYHSGSTYYNPSLKSRVTISVDTSKNQFSLKLSSVTAADTAVYYCAIEGANYYDFGYVAFDIWGQGTMVTVSS
VL: B3 VL
notes: parent clone
B12: Fab of anti-TIGIT clone 26518 (Fab, V domains shown)
VH: B1 VH
VL: B1 VL
B13: Fab of anti-TIGIT clone 29523 (Fab, V domains shown)
VH: EVQLVESGGGVVQPGRSLRLSCAASGFTFGSYYMHWVRQAPGKGLEWVAVIWPDGSNKLYADSVKGRFTISRDNSKNTLYLQMNSLRAEDTALYYCAKPVPKSRALDVWGQGTMVTVSS
VL: DIQLTQSPSSVSASVGDRVTITCRASQGISSWLAWYQQKPGKAPKLLIYGASSLQSGVPSRFSGSGSGTDFTLTISSLQPEDFATYYCQQAFYLPWTFGGGTKVEIK
B14: anti-TIGIT antibody clone 26432 (IgG) (antibody, V domains shown)
VH: QVQLVQSGAEVKKPGSSVKVSCKASGGTFSSYAISWVRQAPGQGLEWMGGIIPIFGTANYAQKFQGRVTITADESTSTAYMELSSLRSEDTAVYYCAREAQSYRVPFDIWGQGTMVTVSS
VL: EIVMTQSPATLSVSPGERATLSCRASQSVSSNLAWYQQKPGQAPRLLIYGASTRATGIPARFSGSGSGTEFTLTISSLQSEDFAVYYCQQYAIWPPFTFGGGTKVEIK
notes: also called parental clone 26432
B15: Fab of anti-TIGIT clone 26486 (Fab, V domains shown)
VH: B11 VH
VL: B3 VL
B16: Fab of anti-TIGIT clone 26521 (Fab, V domains shown)
VH: B2 VH
VL: B2 VL

Experiments:
[1] = target: T1, human TIGIT expressed on cells; experiment: cell-based or functional assay
[2] = target: T1, human TIGIT expressed on cells; experiment: flow cytometry, 100 nM Ab, Jurkat-hTIGIT vs untransfected
Procedure: (§1) Antibodies were incubated with the cells for 20 min at 4° C. in FACS buffer. […] Geometric mean fluorecence intensity was analysed using LSR BD Fortessa. Cell binding was recorded as the median florescence intensity of PE on the transfected line compared to the un-transfected line for each antibody (Table 3).

Human TIGIT-Fc = target: T2, Human TIGIT-Fc; experiment: ForteBio BLI, IgG KD, avid
Procedure: Briefly, ForteBio affinity measurements were performed by loading IgGs on-line onto AHQ sensors. Sensors were equilibrated off-line in assay buffer for 30 min and then monitored on-line for 60 seconds for baseline establishment. Sensors with loaded IgGs were exposed to 100 nM antigen (human TIGIT-Fc, human TIGIT-His or cyno TIGIT-Fc) for 5 minutes, afterwards they were transferred to assay buffer for 5 min for off-rate measurement. Kinetics were analyzed using the 1:1 binding model.

[3] = target: T3, mouse TIGIT expressed on cells; experiment: flow cytometry, 100 nM Ab, Jurkat-mTIGIT vs untransfected
Procedure: as §1

Human TIGIT-His = target: T4, Human TIGIT-His; experiment: ForteBio BLI, Fab KD, monovalent
Cyno TIGIT-Fc = target: T6, Cyno TIGIT-Fc (cynomolgus, UniProt A0A7N9I9V4 89-209); experiment: ForteBio BLI, Fab KD, monovalent
T6 construct: not shown: Fc part
T6 sequence (A0A7N9I9V4 entry or part of it): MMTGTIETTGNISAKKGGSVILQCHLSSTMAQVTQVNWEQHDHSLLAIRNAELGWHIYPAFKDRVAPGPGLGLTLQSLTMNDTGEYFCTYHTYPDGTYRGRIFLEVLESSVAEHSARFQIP

Mouse TIGIT-Fc = target: T5, Mouse TIGIT-Fc; experiment: ForteBio BLI, Fab KD, monovalent
[4] = target: T1, human TIGIT expressed on cells; experiment: cell-based or functional assay; remark: listed apart in the source

Binder	FON (Fold Over Negative) [2] [fold]	Kd (Human TIGIT-Fc) [nM]	Kd (Human TIGIT-His) [nM]	Kd (Cyno TIGIT-Fc) [nM]	also measured
B1	154	0.63	–	–	Induction over Isotype control (fold change), luciferase, Jurkat-hTIGIT + CHO-TCR-CD155, 133 nM [1]: 2.89 fold; FON (Fold Over Negative) [3]: 233 fold
B2	146	0.541	–	–	Induction over Isotype control (fold change), luciferase, Jurkat-hTIGIT + CHO-TCR-CD155, 133 nM [1]: 2.66 fold; FON (Fold Over Negative) [3]: 218 fold
B3	–	–	2.09	25.1	–
B4	–	–	1.66	18.6	Kd (Mouse TIGIT-Fc): 53.6 nM
B5	–	–	1.66	14.5	Kd (Mouse TIGIT-Fc): 25.5 nM
B6	–	–	1.42	6.57	–
B7	–	–	1.18	1.97	–
B8	680	–	–	–	EC50 of Jurkat-hTIGIT cell activation (luciferase), FIG. 12B [4]: 2.7 nM
B9	182	0.527	–	–	Induction over Isotype control (fold change), luciferase, Jurkat-hTIGIT + CHO-TCR-CD155, 133 nM [1]: 3.57 fold; FON (Fold Over Negative) [3]: 500 fold
B10	741	–	–	–	EC50 of Jurkat-hTIGIT cell activation (luciferase), FIG. 12B [4]: 3.2 nM
B11	143	0.589	–	–	Induction over Isotype control (fold change), luciferase, Jurkat-hTIGIT + CHO-TCR-CD155, 133 nM [1]: 1.9 fold; FON (Fold Over Negative) [3]: 199 fold
B12	–	–	1.24	4.47	–
B13	–	–	3.84	27.9	Kd (Mouse TIGIT-Fc): 18.9 nM
B14	–	4.62	–	–	–
B15	–	–	21.9	–	binding result (Cyno TIGIT-Fc): no binding
B16	–	–	9.87	149	–
